Experimental findings from patent CN115594767A are described below.

pEC50, pKd: −log10 of the molar value.

One assay concerns the target CD16A-158V (UniProt P08637). Nature of the assay: BLI, CD16A-158V on anti-his probe, antibody as analyte. A general note: BLI is a label-free optical method that tracks binding on a fibre tip over time.
Assay [1] addresses HER2 (Human epidermal growth factor receptor 2) (human) (UniProt P04626). The assay is described as follows: ELISA, HER2 coated at 1 ug/mL, HRP-anti-human IgG Fc detection.

UniProt P08637, sequence (P08637 17-208 F176V limits assumed): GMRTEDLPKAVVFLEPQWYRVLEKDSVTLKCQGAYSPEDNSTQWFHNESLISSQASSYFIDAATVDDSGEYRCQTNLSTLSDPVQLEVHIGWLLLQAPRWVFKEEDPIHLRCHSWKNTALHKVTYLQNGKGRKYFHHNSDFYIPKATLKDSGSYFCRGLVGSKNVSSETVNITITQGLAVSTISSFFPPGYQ

In general, pKd refers to −log10 of the Kd, conventionally taken in molar units. Low values mean a large Kd, high ones a small Kd. For orientation: koff means a measure of how fast the partners let go of each other. A high value points to fast dissociation. Broadly, the kon is the rate constant with which the complex forms. A higher kon goes with faster complex formation. What is called pEC50 is the EC50 on a negative log10 scale, so that one unit is a factor of ten. The low end stands for a large EC50, the high end for a small EC50. Take KN026 (bispecific antibody): in the assay with CD16A-158V, the negative logarithm of the Kd (pKd) was 6.33, the off-rate constant (koff) came to 0.0782 s⁻¹ and the association rate constant (kon) was found to be 168000 M⁻¹ s⁻¹. For the same substance, the pEC50 in assay [1] is 9.83.
In assay [1], MGAH22 (antibody) gave a pEC50 of 9.89.
